From patent US20240301046A1 (MABWELL THERAPEUTICS, published 2024)
Residue numbers refer to the chain shown, from its start. Like-named read-outs stand apart in the source and are kept apart here. Each block holds one binder with its values, some of them ahead of it.

Columns and labels:
[1] = biological target: T1, HiLyte488 labelled Aβ1-42 protofibrils (UniProt P05067 672-713, HiLyte488 fluorophore on part of the peptides (labelled and unlabelled Aβ1-42 monomers mixed 1:5)); test: cell-based or functional assay
[2] = biological target: T2, Aβ1-42 (rPeptide, A-1167-2) (UniProt P05067 672-713); test: direct ELISA, coated Aβ1-42
T2 construct: domain: Aβ1-42; also called Abeta 1-42
Experimental: (§1) Direct ELISA was used to test each antibody's affinity for Aβ₁₋₄₂ and pyroglutamate-modified Aβ (Aβₚ₃₋₄₂). Plates were coated with 0.5 μM of Aβ₁₋₄₂ (rPeptide, A-1167-2) or Aβₚ₃₋₄₂ (AnaSpec, AS-29907-01) for 2 h at 4° C. Diluents of antibodies (3-fold serial dilutions with concentrations in the range of 0-100 nM) were added to the plate for 1 h at RT. Binding of antibody to immobilized Aβ on each plate was detected by HRP-labeled secondary antibody and TMB substrate, as described in Example 2.

[3] = biological target: T3, biotin-labelled Aβ1-40 monomer (AnaSpec, AS-61483-01) (UniProt P05067 672-711, biotin label, position not stated); test: capture ELISA, coated antibody, biotin-Aβ1-40 monomer
T3 construct: domain: Aβ1-40; also called biotin-conjugated Aβ40 monomer; biotin-Aβ monomer
Experimental: (§2) A 96-well plate was coated with 5 μg/mL of antibodies overnight at RT. The plate was then treated with diluents of biotin-labelled Aβ₁₋₄₀ monomers (AnaSpec, AS-61483-01, 4-fold serial dilutions with concentrations in the range of 0-1000 nM) for 1 h at RT. The binding of biotin-labelled Aβ₁₋₄₀ monomers with immobilized antibody was detected by HRP-conjugated streptavidin and TMB, as described in Example 2.

[4] = biological target: T1, HiLyte488 labelled Aβ1-42 protofibrils; test: cell-based or functional assay; remark: listed apart in the source
[5] = biological target: T2, Aβ1-42 (rPeptide, A-1167-2); test: direct ELISA, coated Aβ1-42; remark: listed apart in the source
[6] = biological target: T3, biotin-labelled Aβ1-40 monomer …; test: capture ELISA, coated antibody, biotin-Aβ1-40 monomer; remark: listed apart in the source
Experimental: The plate was incubated for 1 h at RT and washed 3 times with PBST. The plate was then incubated with HRP-conjugated streptavidin (Thermo Fisher Scientific, SNN2004) at 1:5000 diluted in 1% BSA for 20 min at RT and washed 3 times. TMB Stabilized Chromogen substrate solution (Life Technologies, SB02) was added to the plate, and the reaction was stopped by adding 1M sulfuric acid. The absorbance at 450 nm was measured in a plate reader.
as §2

[7] = biological target: T2, Aβ1-42 (rPeptide, A-1167-2); test: direct ELISA, coated Aβ1-42; remark: listed apart in the source
[8] = biological target: T2, Aβ1-42 (rPeptide, A-1167-2); test: direct ELISA, coated Aβ1-42; remark: listed apart in the source
[9] = biological target: T4, pyroglutamate-modified Aβ (Aβp3-42) (AnaSpec, AS-29907-01) (UniProt P05067 674-713, pyroglutamate at Aβ position 3 (the N-terminus)); test: direct ELISA, coated Aβp3-42
T4 construct: domain: Aβp3-42; also called Abeta p3-42

[10] = biological target: T3, biotin-labelled Aβ1-40 monomer …; test: capture ELISA, coated antibody, biotin-Aβ1-40 monomer; remark: listed apart in the source
[11] = biological target: T4, pyroglutamate-modified Aβ (Aβp3-42) …; test: direct ELISA, coated Aβp3-42; remark: listed apart in the source
Experimental: After 3 washes with 1× Phosphate-Buffered Saline, 0.1% Tween 20 (PBST), each plate was blocked with 1% BSA in PBS for 1 h at room temperature (RT). Diluents of Aβ antibodies (3-fold serial dilutions with concentrations in the range of 0-100 nM) were added to plates. The plate was incubated for 1 h at RT and washed 3 times. The plate was then incubated with HRP conjugated goat anti-mouse IgG (Thermo Fisher Scientific, G-21040; thermofisher.com) 1:5000 diluted in 1% BSA for 1 h at RT and washed 3 times. TMB (3,3′,5,5;-tetramethylbenzidine) Stabilized Chromogen substrate solution (Life Technologies (Thermo Fisher Scientific) SB02) was added to the plate, and the reaction was stopped by adding 1M sulfuric acid. The absorbance at 450 nm was measured in a plate reader.
as §1

ADCP (RFU) [1]: 99100 RFU
EC50 [2]: 0.075 nM
EC50 [3]: 0.07 nM
B1: 22H10A (antibody, V domains shown)
VH: EMQLVESGGGLVKPGGSLRLSCAASGFTFSSYSMNWVRQAPGKGLEWVSSISTRKNYIYYADSVQGRFIFSRDNAKNALYLQMNSLRAEDSAVYYCTRGGYIRSPNAFDIWGQGTMVTVSS
VL: QTVVTQEPSLTVSPGGTVTLTCASSTGTVTSGYFPNWLQQKPGQAPRALIYSINNKHFWTPARFSGSLLGGKAALTLSGVQPEDEAEYYCLLYYGGAWVFGGGTKLTVL

ADCP (RFU) [1]: 194000 RFU
EC50 [2]: 0.075 nM
EC50 [3]: 0.34 nM
B2: 17D08A (antibody, V domains shown)
VH: EVQLVESGGGLVQPGGSLKLSCAASGFTFSGSAIHWVRQASGKGLEWVGRIRSKVNSYATAYAASVKGRFTISRDDSKNTAYLQMNSLKTEDTAVYYCTRHAPNFDAFDIWGQGTMVTVSS
VL: QSVLTQPPSVSAAPGQKVTISCSGYSSNIGNHYVSWYQQLPGTAPKFFIYDNNKRPSGIPDRFSGSKSGTSATLGITGLQTGDEADYYCGTWDSSLITYVFGTGTKVTVL

ADCP (RFU) [1]: 245000 RFU
EC50 [2]: 0.042 nM
EC50 [3]: 0.02 nM
B3: 21G10A (antibody, V domains shown)
VH: EVQLVESGGGSVQPGGSLRLSCAASGFTFSSYWMHWVRQAPGKGLVWVSRINSDGSITTYADSVKGRFTISRDNAKNTLYLQMNSLRAEDTAVYYCARGGGSLDYWGQGTLVTVSS
VL: B2 VL with Y25S, H32Y, F47L, F48L, I97S, T98A, Y99V, T103G, V107L

ADCP (RFU) [1]: 273000 RFU
EC50 [2]: 0.038 nM
EC50 [3]: 0.78 nM
B4: 15M13A (antibody, V domains shown)
VH: QVTLKESGPGILQPSQTLSLTCSFSGFSLSTFGMGVGWIRQPSGKGLEWLAHIWWDDDKYYNPALKSRLTISKDTSKNQVFLKIANVDTADTATYYCARLGYYPYWFFDVWGTGTTVTVSS
VL: B2 VL with Y25S, F47L, F48L, S94T, I97S, T98A, Y99V, T103G, V107L

ADCP (RFU) [1]: 279000 RFU
EC50 [2]: 0.051 nM
EC50 [3]: 0.02 nM
B5: 17H05A (antibody, V domains shown)
VH: B3 VH with A40V, T59S, D90N
VL: B2 VL with Y25S, H32Y, F47L, F48L, N53H, I97S, T98A, Y99V, T103G, V107L

ADCP (RFU) [1]: 126000 RFU
EC50 [2]: 0.068 nM
B6: 18F06A (antibody, V domains shown)
VH: B3 VH with S11L, S53R, I57T, T59S, S85R, S102A, L103F, Y105I, L111M
VL: QSVLTQPPSVSAAPGQKVTISCSGSSSNIGNYYVSWYQQLPGTAPKLLIYDNNKRPSGIPDRFSASKSGTSATLGITGLQTGDEADYYCGTWDDSLSAVVFGGGTKLTVL

ADCP (RFU) [1]: 262000 RFU
EC50 [2]: 0.048 nM
EC50 [3]: 0.01 nM
B7: 21F12A (antibody, V domains shown)
VH: B3 VH with V5A, A40V, I57T
VL: B6 VL with A65G, Q80R, D94S

ADCP (RFU) [1]: 257000 RFU
EC50 [2]: 0.05 nM
EC50 [3]: 0.01 nM
B8: 20O11A (antibody, V domains shown)
VH: B3 VH with S11L, V46A, S49A, I57S, T59S, S102L, L103F
VL: B6 VL with Y32H, A65G, D94S, S97G, V100L

ADCP (RFU) [4]: 488000 RFU
EC50 [5]: 0.087 nM
EC50 [6]: 248 nM
B9: 18P01A(mIgG2a) (antibody)
heavy: EVQLVESGGGLVQPGGSLKLSCAVSGFTFSGSAMHWVRQASGKGLEWVGRIRSKANSYATAYAASVKGRFTISRDDSKNTAFLQMNSLKTEDTAVYYCTSHAPNFDAFDIWGQGTMVTVSSASTKGPSVFPLAPCSRSTSESTAALGCLVKDYFPEPVTVSWNSGALTSGVHTFPAVLQSSGLYSLSSVVTVPSSNFGTQTYTCNVDHKPSNTKVDKTVERKCPPCKCPAPNLLGGPSVFIFPPKIKDVLMISLSPIVTCVVVDVSEDDPDVQISWFVNNVEVHTAQTQTHREDYNSTLRVVSALPIQHQDWMSGKEFKCKVNNKDLPAPIERTISKPKGSVRAPQVYVLPPPEEEMTKKQVTLTCMVTDFMPEDIYVEWTNNGKTELNYKNTEPVLDSDGSYFMYSKLRVEKKNWVERNSYSCSVVHEGLHNHHTTKSFSRTPGK
light: QSVLTQPPSVSAAPGQKVTISCSGSSSNIGNHYVSWYQQLPGTAPKFFIYDNSKRPSGIPDRFSGSKSGTSATLGITGLQTGDEADYYCGTWDSSLSTYVFGTGTKVTVLGQPKAAPSVTLFPPSSEELQANKATLVCLISDFYPGAVTVAWKADSSPVKAGVETTTPSKQSNNKYAASSYLSLTPEQWKSHRSYSCQVTHEGSTVEKTVAPTECS
notes: chimeric: human F(ab')2, mouse IgG2a CH2-CH3, recombinant

fold increase of EC50 against the original chimeric 18P01A [7]: > 800 fold
EC50 [8]: 50 nM
EC50 [9]: 196 nM
EC50 [10]: 917 nM
B10: 18P01A(hIgG1) (antibody)
heavy: not shown
light: B9 light
notes: fully human IgG1 lambda, expressed in CHO cells; also called Fully human 18P01A (hlgG1); fully human 18P01A

ADCP (RFU) [4]: 375000 RFU
EC50 [5]: 0.057 nM
EC50 [11]: 19.4 nM
EC50 [6]: 59 nM
B11: 17P04A(mIgG2a) (antibody)
heavy: EVQLVESGGGLVKPGGSLRLSCAASGFTLSSFSMNWVRQAPGKGLEWVSSISSRRTYIYYADSAKGRFTFSRDNAKNSLYLQMNSLRAEDSAVYYCARGGYIGSPNAYDIWGQGTMVTVSSASTKGPSVFPLAPCSRSTSESTAALGCLVKDYFPEPVTVSWNSGALTSGVHTFPAVLQSSGLYSLSSVVTVPSSNFGTQTYTCNVDHKPSNTKVDKTVERKCPPCKCPAPNLLGGPSVFIFPPKIKDVLMISLSPIVTCVVVDVSEDDPDVQISWFVNNVEVHTAQTQTHREDYNSTLRVVSALPIQHQDWMSGKEFKCKVNNKDLPAPIERTISKPKGSVRAPQVYVLPPPEEEMTKKQVTLTCMVTDFMPEDIYVEWTNNGKTELNYKNTEPVLDSDGSYFMYSKLRVEKKNWVERNSYSCSVVHEGLHNHHTTKSFSRTPGK
light: QTVVTQEPSLTVSPGGTVTLTCASSTGAVTSDYYPNWFQQKPGQAPRALIYSASTKHSWTPARFSGSLLGGKAALTLSGVQPEDEADYYCLLYYGGAWVFGGGTKLTVLGQPKAAPSVTLFPPSSEELQANKATLVCLISDFYPGAVTVAWKADSSPVKAGVETTTPSKQSNNKYAASSYLSLTPEQWKSHRSYSCQVTHEGSTVEKTVAPTECS
notes: as for B9

EC50 [8]: 0.062 nM
EC50 [9]: 38.7 nM
EC50 [10]: 33.8 nM
B12: 17P04A(hIgG1) (antibody)
heavy: not shown
light: B11 light
notes: fully human IgG1 lambda, expressed in CHO cells; also called Fully human 17P04A (hlgG1)
